Measured values reported in patent publication US20250197448A1, “CYCLOPEPTIBODIES AND USES THEREOF” (University of Rochester, priority 2022, published 2025).
“Also recorded” adds a separate entry of the source. Starred links: 1 amine or outer side, 2 acyl side, 3 side chain; linkers in the order of their positions; H or OH if unused. Positions of bridges follow the written chain, without caps; N, C: chain ends. Non-standard residues stand in square brackets, D forms with d. No end group written: not given here. pCaaF = p-(2-chloroacetamido)-phenylalanine, O=C(CCl)Nc1ccc(C[C@H](N[*:1])C(=O)[*:2])cc1

Tests used:
PD-L1 = target: T1, PD-L1 (Homo sapiens, UniProt Q9NZQ7); experiment: in vitro PD-L1 binding assay (plate-immobilized PD-L1); conditions: Q6 vs. Q12 spacer
T1 construct: poly-histidine (C); made in house
Protocol: (§1) Streptavidin Binding Assay. For the streptavidin binding assays, streptavidin-coated plates (Sigma-Aldrich) were used. For the Keap1, Shh and PD-L1 binding assay, target protein was immobilized on microtiter plates by incubating 100 μL of a 4 μM protein solution in PBS buffer overnight at 4° C., followed by decanting the protein solution and blocking with 0.5% bovine serum albumin in PBS for 2 h at room temperature. After washing (3×150 μL of PBS with 0.05% Tween-20), each well was incubated with 100 μL of purified FLAG-tagged cyclopeptibody at varying concentrations for 1 hour at room temperature. After washing three times with wash buffer, each well was incubated with 100 μL of 1:2500 dilution of HRP-conjugate mouse anti-FLAG polyclonal antibody (Sigma-Aldrich) for 1 hour at room temperature. After washing three times with wash buffer, 100 μL of 2.2 mM o-phenylenediamine dihydrochloride, 4.2 mM urea hydrogen peroxide, 100 mM dibasic sodium phosphate, and 50 mM sodium citrate, pH 5.0, were added to each well, followed by measurement of the absorbance at 450 nm after 10-20 min using a Tecan Infinite 1000 plate reader. Equilibrium dissociation constants (Kp) were determined by fitting the dose-response curves to a 1:1 binding isotherm equation via nonlinear regression. using SigmaPlot. Mean values and standard deviations were calculated from experiments performed in triplicate. […]

[1] = target: T2, PD-L1 receptor on MDA-MB-231 cells (Homo sapiens, UniProt Q9NZQ7); experiment: flow cytometry of MDA-MB-231 cells, PD-L1 labeling with FITC anti-human IgG Fc; assay type: cell-based; conditions: for staining / labeling of PD-L1 receptors on MDA-MB-231 cells (in words): concentration not given at the place
T2 construct: known to express high levels of PD-L1 on their surface; endogenous in cells; host or cells: MDA-MB-231
Protocol: The cells were then incubated with fluorescein-conjugated anti-human IgG Fc antibody and analyzed by flow cytometry. The same experiment was carried out in parallel using commercially available anti-PD-L1 antibody as positive control and various negative controls.
Flow Cytometry Analysis. […] When confluent, media was aspirated, cells were washed once with 1×DPBS (no calcium, no magnesium) (Gibco). Adherent cells were detached from the petri dish with 1 mL of accutase (Gibco) pre-warmed to 37° C., followed by incubated for 5 min at 37° C. Cells were spun down using centrifugation. Supernatant was removed and cells were washed three times with staining buffer (1×PBS with 0.5% BSA). Cells were resuspended in Eppendorf tubes in 100 μL PBS at a concentration of 107cells per mL. […] Eppendorf tubes were then placed on the platform shaker for gently shaking for 1 hour at room temperature. After 1 hour, cells were spun down using centrifugation, then supernatant was removed. […] Cells were washed as described above, then resuspended in 400 μL staining buffer. […] The cells of interest were gated using Forward and Side scatter (FSC/SSC). 10,000 singlet events were collected for each specimen.

[2] = target: T3, PD-L1 expressed on the surface of MDA-MB-231 cells (Homo sapiens, UniProt Q9NZQ7); experiment: confocal microscopy imaging of MDA-MB-231 cells; assay type: cell-based; conditions: anti-Fc-FITC staining
T3 construct: known to express high levels of PD-L1 on their surface; endogenous in cells; host or cells: MDA-MB-231
Protocol: Cyclopeptibodies can be applied for detection and imaging of a target protein in cells and other biological systems. To illustrate this aspect of the invention, breast cancer cells MDA-MB-231 cells were treated with PD-L1 targeting cRK10 (pCaaF)-Tras-Fc. MDA-MB-231 cells are known to express high levels of PD-L1 on the cell membrane. After treatment with cRK10 (pCaaF)-Tras-Fc, the cyclopeptibody bound to the surface PD-L1 was labeled with fluorescein-conjugated anti-human Fc antibody (‘anti-Fc-FITC’) and cells were imaged using confocal microscopy.

streptavidin = target: T4, streptavidin (Streptomyces avidinii, UniProt P22629); experiment: in vitro streptavidin binding assay (streptavidin-coated plates, anti-FLAG HRP detection)
T4 construct: purchased Sigma-Aldrich
Excerpt: To prepare a cyclopeptibody capable of binding the protein streptavidin, a cyclic streptavidin-binding peptide previously discovered via phage display (Owens et al, ACS Cent Sci. (2020); 6(3):368-381) was genetically fused to the Fc domain of human IgG1 via a spacer (Entry 1, Table 1). The resulting cyclopeptibody (called Strep-m3-Tras-Fc) was expressed, purified, and characterized as described in Example 4. This construct was confirmed to contain the cyclic peptide constrained via O2beY/Cys thioether (i/i-8) linkage, where ‘i’ indicates the position of the non-canonical amino acid O2beY (also refereed to herein as p-2beF). […]
Streptavidin Binding Assay. […] After washing three times with wash buffer, 100 μL of 2.2 mM o-phenylenediamine dihydrochloride, 4.2 mM urea hydrogen peroxide, 100 mM dibasic sodium phosphate, and 50 mM sodium citrate, pH 5.0, were added to each well, followed by measurement of the absorbance at 450 nm after 10-20 min using a Tecan Infinite 1000 plate reader. Equilibrium dissociation constants (Kp) were determined by fitting the dose-response curves to a 1:1 binding isotherm equation via nonlinear regression. using SigmaPlot. Mean values and standard deviations were calculated from experiments performed in triplicate.

Sonic Hedgehog (Shh) = Sonic Hedgehog (Shh) (Homo sapiens, UniProt Q15465); experiment: in vitro Shh binding assay (plate-immobilized Shh)
Protocol: as §1

PD-1/PD-L1 interaction = target: T5, PD-1/PD-L1 interaction (Homo sapiens, UniProt Q9NZQ7); experiment: PD-L1 competition assay with biotinylated PD-1; assay type: binding
T5 construct: poly-histidine (C); made in house; PD-1 co-expressed with BirA
Protocol: Next, we examined the ability of the cyclopeptibody cCLP003-Tras-Fc to inhibit the PD-1/PD-L1 interaction using a competition assay with recombinant biotinylated PD-1 (Bio-PD-1). Briefly, PD-L1 immobilized on a plate was incubated with Bio-PD-1 and varying concentrations of cCLP003-Tras-Fc or control Fc. The PD-L1-bound PD-1 was then quantified colorimetrically (OD450) using horseradish peroxidase (HRP)-conjugated streptavidin.
PD-L1 Competition Assay. PD-L1 was immobilized on microtiter plates as described above. followed by decanting the protein solution and blocking with 0.5% bovine serum albumin in PBS for 2 h at room temperature. After washing, each well was incubated with 100 μL of serial dilutions of cCLP003-Tras-Fc-His for 1 hour at room temperature. Biotinylated PD-1 (500 nM) was added and incubated for 1 h at room temperature. After washing, the bound PD-1 was quantified by means of HRP-conjugate Streptavidin and colorimetric assay as described above. The inhibitory constant (IC50) was determined by fitting the dose-response curves to a 4-parameter equation via nonlinear regression using SigmaPlot. Mean values and standard deviations were calculated from experiments performed in triplicate.

[3] = target: T6, integrin αvβ3 on MDA-MB-231 cells (Homo sapiens, UniProt P05106+P06756); experiment: flow cytometry of MDA-MB-231 cells, integrin receptor labeling; assay type: cell-based; conditions: FITC anti-IgG1 Fc detection
T6 construct: known to express high levels of integrin αvβ3 on their surface; endogenous in cells; host or cells: MDA-MB-231
Protocol: Flow Cytometry Analysis. Cell line MDA-MB-231 was grown in culture to reach confluency. When confluent, media was aspirated, cells were washed once with 1×DPBS (no calcium, no magnesium) (Gibco). Adherent cells were detached from the petri dish with 1 mL of accutase (Gibco) pre-warmed to 37° C., followed by incubated for 5 min at 37° C. Cells were spun down using centrifugation. Supernatant was removed and cells were washed three times with staining buffer (1×PBS with 0.5% BSA). Cells were resuspended in Eppendorf tubes in 100 μL PBS at a concentration of […]. Cyclopeptibodies or Human anti-PD-L1 antibody (1 μg) (R&D Systems, MAB10355) in staining buffer were then added to the tubes with a concentration of 1.5 μM in 200 μL. Eppendorf tubes were then placed on the platform shaker for gently shaking for 1 hour at room temperature. After 1 hour, cells were spun down using centrifugation, then supernatant was removed. After washing three times, cells were resuspended in 200 μL of Fluorescein (FITC) AffiniPure Goat Anti-Human IgG with working concentration of 30 μg/mL (Jackson ImmunoResearch, 109-095-098), incubated in the dark for 30 min at room temperature. Cells were washed as described above, then resuspended in 400 μL staining buffer. Then cells were analyzed on a BD FACS Accuri C6^+ using a filter of 533/30. The cells of interest were gated using Forward and Side scatter (FSC/SSC). 10,000 singlet events were collected for each specimen.
After purification as described in Example 2, these cyclopeptibodies were used to treat breast cancer cells (MDA-MB-231), which are known to express high levels of integrin αvβ3 on their surface. The cyclopeptibody treated cells were then analyzed by flow cytometry using a procedure similar to that described for the PD-L1-targeting cyclopeptibodies in Example 9.

T2 sequence (Q9NZQ7 19-290): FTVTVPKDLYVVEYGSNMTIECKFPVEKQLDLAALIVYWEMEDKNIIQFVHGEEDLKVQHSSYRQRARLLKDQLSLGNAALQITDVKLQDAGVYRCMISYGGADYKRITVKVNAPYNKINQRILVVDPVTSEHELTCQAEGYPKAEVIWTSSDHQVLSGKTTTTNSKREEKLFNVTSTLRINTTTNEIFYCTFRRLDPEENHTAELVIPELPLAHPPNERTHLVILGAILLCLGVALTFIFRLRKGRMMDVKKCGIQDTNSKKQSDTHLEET
T6 sequence (P06756 31-889 limits assumed): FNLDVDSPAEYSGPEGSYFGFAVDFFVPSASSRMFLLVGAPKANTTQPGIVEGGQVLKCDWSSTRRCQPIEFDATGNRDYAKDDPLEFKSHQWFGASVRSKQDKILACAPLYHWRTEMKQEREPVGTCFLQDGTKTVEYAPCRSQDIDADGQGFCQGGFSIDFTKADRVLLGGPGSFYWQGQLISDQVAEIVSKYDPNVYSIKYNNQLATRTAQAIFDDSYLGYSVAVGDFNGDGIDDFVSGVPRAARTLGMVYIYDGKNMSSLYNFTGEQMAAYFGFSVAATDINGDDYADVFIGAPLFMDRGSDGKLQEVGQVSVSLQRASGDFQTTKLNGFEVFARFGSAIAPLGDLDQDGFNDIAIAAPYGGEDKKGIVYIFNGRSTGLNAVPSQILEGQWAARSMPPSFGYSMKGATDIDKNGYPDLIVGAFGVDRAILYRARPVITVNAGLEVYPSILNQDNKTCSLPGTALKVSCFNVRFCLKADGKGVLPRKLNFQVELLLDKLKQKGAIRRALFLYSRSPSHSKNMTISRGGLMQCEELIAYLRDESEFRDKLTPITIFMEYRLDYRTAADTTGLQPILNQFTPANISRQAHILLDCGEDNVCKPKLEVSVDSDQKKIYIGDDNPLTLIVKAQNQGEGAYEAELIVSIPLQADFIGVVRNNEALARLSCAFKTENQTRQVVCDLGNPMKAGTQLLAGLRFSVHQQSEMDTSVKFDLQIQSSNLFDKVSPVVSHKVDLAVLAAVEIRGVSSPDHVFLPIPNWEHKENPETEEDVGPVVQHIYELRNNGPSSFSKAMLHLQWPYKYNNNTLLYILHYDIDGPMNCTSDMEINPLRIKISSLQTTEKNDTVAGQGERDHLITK
T6 sequence (P06756 891-1048 partner limits assumed): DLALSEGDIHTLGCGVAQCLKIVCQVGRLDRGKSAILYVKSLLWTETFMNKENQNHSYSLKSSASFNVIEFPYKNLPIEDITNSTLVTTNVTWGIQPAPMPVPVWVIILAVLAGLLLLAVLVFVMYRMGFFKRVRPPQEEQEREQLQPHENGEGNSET
T6 sequence (P05106 27-788): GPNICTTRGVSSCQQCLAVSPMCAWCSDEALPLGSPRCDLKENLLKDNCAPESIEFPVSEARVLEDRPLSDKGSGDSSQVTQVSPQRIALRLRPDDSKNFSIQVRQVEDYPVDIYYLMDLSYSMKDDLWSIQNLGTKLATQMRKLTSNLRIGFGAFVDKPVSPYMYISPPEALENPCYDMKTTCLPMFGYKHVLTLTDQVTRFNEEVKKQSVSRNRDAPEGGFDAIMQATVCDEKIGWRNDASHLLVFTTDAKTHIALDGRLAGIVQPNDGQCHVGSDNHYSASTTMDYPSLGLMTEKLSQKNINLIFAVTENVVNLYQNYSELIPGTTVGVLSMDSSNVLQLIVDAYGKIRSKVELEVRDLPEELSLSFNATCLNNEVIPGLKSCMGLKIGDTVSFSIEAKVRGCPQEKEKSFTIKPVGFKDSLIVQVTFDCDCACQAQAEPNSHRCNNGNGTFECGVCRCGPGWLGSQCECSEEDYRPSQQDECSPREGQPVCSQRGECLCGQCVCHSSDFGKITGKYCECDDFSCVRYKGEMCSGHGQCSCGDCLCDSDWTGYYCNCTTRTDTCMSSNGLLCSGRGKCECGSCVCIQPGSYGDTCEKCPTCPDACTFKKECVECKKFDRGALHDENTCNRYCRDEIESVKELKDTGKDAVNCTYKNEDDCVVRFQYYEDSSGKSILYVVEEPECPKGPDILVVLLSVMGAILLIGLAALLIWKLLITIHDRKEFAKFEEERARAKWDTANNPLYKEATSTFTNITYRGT
T4 sequence (P22629 25-183): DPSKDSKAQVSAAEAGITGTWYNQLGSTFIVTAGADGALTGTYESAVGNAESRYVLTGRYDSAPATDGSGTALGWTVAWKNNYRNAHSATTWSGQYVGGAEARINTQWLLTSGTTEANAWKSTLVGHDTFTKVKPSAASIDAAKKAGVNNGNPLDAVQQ
T5 sequence (Q9NZQ7 19-238 limits assumed): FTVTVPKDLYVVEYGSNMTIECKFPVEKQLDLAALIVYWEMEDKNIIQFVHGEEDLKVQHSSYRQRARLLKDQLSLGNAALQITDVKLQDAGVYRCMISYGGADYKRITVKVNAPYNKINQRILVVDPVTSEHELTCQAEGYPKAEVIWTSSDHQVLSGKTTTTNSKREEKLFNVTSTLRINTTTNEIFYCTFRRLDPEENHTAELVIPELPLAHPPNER
T3 sequence (Q9NZQ7 19-290): as the sequence (Q9NZQ7 19-290) above
T1 sequence (Q9NZQ7 19-290): as above

Substance	higher PD-L1 binding affinity compared to FLAG-cRK10-Q12-Tras-Fc-His (PD-L1)	median fluorescence intensity (MFI) relative to positive control ([1]; MDA-MB-231 cells, 0.09 mg/mL)	staining / labeling of PD-L1 receptors on MDA-MB-231 cells (in words) [1]	recognition of surface PD-L1 by fluorescent imaging [2]	streptavidin binding (in words) (streptavidin)	Shh binding (in words) (Sonic Hedgehog (Shh))	inhibition of PD-1/PD-L1 interaction (in words) (PD-1/PD-L1 interaction)	staining / labeling of PD-L1 receptors on MDA-MB-231 cells (in words) ([1]; listed as human IgG1 Fc domain)	labeling of integrin receptors on MDA-MB-231 cells (in words) [3]
FLAG-(GS)2-TYLCGAISLAZKAQIKESL-(Q)6-(Fc)^1-H6 (DYKDDDDKGSGSTYLCGAISLA[pCaaF]KAQIKESLQQQQQQ-{Fc-H6}; thioether 16-23) [cRK10-Tras-Fc]	six-fold higher	comparable median fluorescence intensity (MFI) to that of the positive control anti-PD-L1 antibody	selective labeling of PD-L1 receptors	able to efficiently recognize PD-L1	–	–	–	–	–
Fc domain: human IgG1 Fc domain alone, negative control [reference compound]	–	–	negligible non-specific interaction	–	no binding	no significant binding below 500 nM	did not exhibit significant inhibitory activity	negligible staining	minimal or significantly reduced staining; also recorded: negligible non-specific interaction
